Data reported in patent US20240360248A1 (NANOMAB TECHNOLOGY, published 2024).

Legend:
[1] = biological target: T1, human PTK7-Fc protein antigen (human, UniProt Q13308 31-704); assay: SPR (Biacore 8K), human PTK7-Fc amine-coupled on CM-5 chip, VHH as analyte
T1 construct: extracellular domain; also called human PTK7 extracellular segment protein; not shown: Fc from the pFUSE-IgG recombinant plasmid
T1 sequence (looked up): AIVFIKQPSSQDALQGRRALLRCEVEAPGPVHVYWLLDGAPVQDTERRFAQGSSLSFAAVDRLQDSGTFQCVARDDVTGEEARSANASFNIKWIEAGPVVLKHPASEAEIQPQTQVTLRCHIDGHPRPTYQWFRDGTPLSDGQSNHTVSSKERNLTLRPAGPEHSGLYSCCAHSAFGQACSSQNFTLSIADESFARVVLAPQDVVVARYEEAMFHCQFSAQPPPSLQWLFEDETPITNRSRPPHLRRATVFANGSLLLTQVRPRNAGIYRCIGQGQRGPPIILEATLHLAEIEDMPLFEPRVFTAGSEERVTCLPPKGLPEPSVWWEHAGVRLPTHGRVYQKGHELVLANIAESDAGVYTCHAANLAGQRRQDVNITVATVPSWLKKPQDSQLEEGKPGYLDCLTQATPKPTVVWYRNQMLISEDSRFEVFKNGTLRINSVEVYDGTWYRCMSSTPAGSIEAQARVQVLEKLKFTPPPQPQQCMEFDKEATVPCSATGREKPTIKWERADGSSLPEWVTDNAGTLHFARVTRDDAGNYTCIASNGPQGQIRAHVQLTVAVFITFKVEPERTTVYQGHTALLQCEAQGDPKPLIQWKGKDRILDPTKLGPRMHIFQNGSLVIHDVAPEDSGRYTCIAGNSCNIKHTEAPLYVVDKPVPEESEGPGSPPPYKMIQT
Description: The fixed phase human PTK7-Fc antigen proteins were fixed on the surface of CM-5 sensing chip using carboxyl amino reaction. The anti-PTK7 single domain antibodies were diluted with HBS buffer to different concentrations, and the anti-PTK7 single domain antibodies were added at a flow rate of 30 μl/min, binding for 90 seconds, dissociating for 600 seconds, and the binding process between the anti-PTK7 single domain antibody and the antigen was observed. After rinsing with 10 mM glycine solution for chip regeneration, the next anti-PTK7 single domain antibody assay was proceeded.

[2] = biological target: T1, human PTK7-Fc protein antigen; assay: ELISA, antigen coated on plate, VHH in gradient dilution, anti-His/anti-HA-HRP; Kd calculated from absorbance at 450 nm
Description: (§1) The ELISA plates were coated with PTK7-Fc antigen proteins from human, or mouse species, or PTK7-His antigen protein from rhesus monkey species, overnight at 4° C. The plates were washed for 4 times with PBS-T the next day, added with 1% BSA, and blocked at room temperature for 2 hours. The plates were washed for 4 times with PBS-T, added with the anti-PTK7 single domain antibodies diluted in gradient, and kept at 37° C. for 1 hour. The plates were washed for 4 times with PBS-T, added with mouse anti-His-HRP antibody or mouse anti-HA-HRP antibody, and kept at 37° C. for 1 hour. The plates were washed for 4 times with PBS-T, added with TMB soluble substrate, and kept at room temperature for 10 minutes. The absorption value was read at a wavelength of 450 nm and the Kd value of each single domain antibody was calculated based on the absorption value.
(§2) The anti-PTK7 single domain antibodies of the present invention can bind to human, mouse or rhesus monkey PTK7.

[3] = biological target: T2, PTK7-His antigen protein from rhesus monkey species (rhesus monkey, UniProt F7G3Z5 39-712); assay: as above
T2 construct: also called Rhesus monkey PTK7; not shown: His tag
T2 sequence: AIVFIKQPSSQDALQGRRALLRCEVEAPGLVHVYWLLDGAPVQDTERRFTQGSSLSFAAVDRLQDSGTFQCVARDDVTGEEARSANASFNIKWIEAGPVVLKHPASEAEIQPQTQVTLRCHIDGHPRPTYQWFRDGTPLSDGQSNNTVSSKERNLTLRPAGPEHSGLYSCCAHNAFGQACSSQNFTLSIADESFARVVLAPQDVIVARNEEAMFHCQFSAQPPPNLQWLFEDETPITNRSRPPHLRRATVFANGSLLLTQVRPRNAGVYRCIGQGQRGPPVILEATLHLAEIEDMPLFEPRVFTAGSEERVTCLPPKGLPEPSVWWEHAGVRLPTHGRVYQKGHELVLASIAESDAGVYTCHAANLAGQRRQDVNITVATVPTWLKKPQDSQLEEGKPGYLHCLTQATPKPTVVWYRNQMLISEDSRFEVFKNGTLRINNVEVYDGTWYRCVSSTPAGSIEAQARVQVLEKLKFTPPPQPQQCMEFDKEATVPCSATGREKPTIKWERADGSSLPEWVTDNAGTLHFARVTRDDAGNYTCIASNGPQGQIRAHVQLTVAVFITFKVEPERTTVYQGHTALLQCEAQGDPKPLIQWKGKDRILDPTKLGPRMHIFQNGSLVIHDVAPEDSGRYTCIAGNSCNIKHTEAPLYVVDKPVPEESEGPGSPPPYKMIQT
Description: as §1, §2

[4] = biological target: T3, PTK7-Fc antigen protein from mouse species (mouse, UniProt Q8BKG3 23-696, limits assumed); assay: as above
T3 construct: also called Mouse PTK7; not shown: Fc
T3 sequence (looked up): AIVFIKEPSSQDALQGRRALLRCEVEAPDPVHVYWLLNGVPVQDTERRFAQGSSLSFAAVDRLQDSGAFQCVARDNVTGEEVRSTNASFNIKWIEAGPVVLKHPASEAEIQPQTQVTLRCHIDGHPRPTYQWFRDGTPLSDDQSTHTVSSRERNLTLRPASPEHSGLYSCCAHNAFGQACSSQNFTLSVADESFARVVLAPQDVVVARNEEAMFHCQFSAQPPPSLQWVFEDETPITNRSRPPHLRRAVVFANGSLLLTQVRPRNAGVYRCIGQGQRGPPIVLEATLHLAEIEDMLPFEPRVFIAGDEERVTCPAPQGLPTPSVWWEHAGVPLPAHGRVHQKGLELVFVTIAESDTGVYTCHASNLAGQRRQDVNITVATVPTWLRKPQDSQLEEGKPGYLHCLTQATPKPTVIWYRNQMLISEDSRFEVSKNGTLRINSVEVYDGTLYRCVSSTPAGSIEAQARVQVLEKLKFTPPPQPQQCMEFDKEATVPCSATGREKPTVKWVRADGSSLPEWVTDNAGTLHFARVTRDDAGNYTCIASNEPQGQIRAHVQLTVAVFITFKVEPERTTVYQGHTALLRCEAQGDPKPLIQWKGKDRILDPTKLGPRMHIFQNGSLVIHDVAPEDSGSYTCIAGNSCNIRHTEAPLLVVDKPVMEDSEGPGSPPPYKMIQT
Description: as §1, §2

B1: MY2132-4-22 (VHH)
VHH: QVQLQESGGGSVQAGGSLRLSCTASGFTFDDYDMVWYRQAPGNEYEWLSTVSRGGNLYYADSVKGRFTISRDNAKNTVYLNMSRVKPEDTAVYYCAADLRSVPSTYRARTCRGRYCRDYWGQGTQVTVSS
notes: Camel VHH expressed in E. coli WK6 and purified on a nickel column; also called MY2132-4-22 VHH; anti-PTK7 single domain antibody
Work on B1 yielded a Kd [1] of 2.13 nM, a koff [1] of 0.0322 s⁻¹ and a kon [1] of 1.51e+07 M⁻¹ s⁻¹. For the same binder, the EC50 [2] was 0.33 nM, the EC50 [3] was 0.3 nM and the EC50 [4] was 12.7 nM.

B2: MY2132-5-51 (VHH)
VHH: QVQLQESGGGLVQPGGSLTLACAASGFAFSSYAMRWVRQAPGKGLEGVSSISAGGDETYYADFAKGRFTISRDNAKNTLYLQLNSLKTEDTAMYYCAKGDRNSPRYSSWPITPVGQGTQVTVSS
notes: Camel VHH expressed in E. coli WK6 and purified on a nickel column; also called MY2132-5-51 VHH; anti-PTK7 single domain antibody
B2 gave a Kd [1] of 3.45 nM, a koff [1] of 0.00166 s⁻¹ and a kon [1] of 482000 M⁻¹ s⁻¹. The EC50 [2] was 0.61 nM and the EC50 [3] was 1.03 nM.

B3: MY2132-4-55 (VHH)
VHH: QVQLQESGGGSVQAGGSLRLSCAASGYIWSRYCMGWFRQAPGKAREGVARFNSDGNTRYVDSVKGRFTISRDNAKNTLYLQMNNLQPEDTARYYCAADPRFDCGYDAVFNPTHFPYWGRGTQVTVSS
notes: Camel VHH expressed in E. coli WK6 and purified on a nickel column; also called MY2132-4-55 VHH; anti-PTK7 single domain antibody
Binder B3 has a Kd [1] of 0.18 nM, a koff [1] of 0.000314 s⁻¹ and a kon [1] of 1.76e+06 M⁻¹ s⁻¹. The EC50 [2] was 0.49 nM.

B4: MY2132-4-79 (VHH)
VHH: QVQLQESGGGSVQAGGSLRLSCAASGYIWSRYCMGWFRQAPGKAREGVARFNSDGNTRYVDSVKGRFTISRDNAKNTLYLQMNNLQPEDTARYYCAADPRFDCGYDAVFNPTHFPYWGQGTQVTVSS
notes: Camel VHH expressed in E. coli WK6 and purified on a nickel column; also called MY2132-4-79 VHH; anti-PTK7 single domain antibody
In the case of B4, the Kd [1] is reported as 0.22 nM, the koff [1] is reported as 0.000358 s⁻¹ and the kon [1] is reported as 1.64e+06 M⁻¹ s⁻¹. It also gave an EC50 [2] of 0.59 nM.
